These results are taken from patent US20250297215A1, “METHOD FOR PRODUCING MILK LIKE PRODUCTS” (SOCIETE DES PRODUITS NESTLE S.A., priority 2021, published 2025).

Assay [1] concerns human-induced pluripotent stem cell (hiPSC) line 603. Put plainly: Flow cytometry quantification of mammary gland progenitor markers after BMP4 treatment, 3D-organoid setting. To be noted: 20 ng/ml BMP4, day 0 to day 3, flow cytometry. The class given is cell-based. The procedure:
(§1) Methods: The human-induced pluripotent stem cell (hiPSC) line 603 was purchased from Fujifilm Cellular Dynamics, Inc (FCDI) and used for the 3D-differentiaion of mammary gland progenitors. Briefly, 5.5 million dissociated iPSCs were plated in the 6 well-plates (ultra-low attachment) containing 4.5 mL aggregation media using a planar shaker platform (set at 95 RPM). BMP4 (314-BP-050, Bio-Techne AG) at different concentrations was added to the culture media between day 0 and day 3.

The test system is the same in assay [2]. The assay is described as follows: Nanostring RNA expression of lineage markers after BMP4 treatment, 3D-organoid setting. The class given is cell-based. The procedure:
as §1
Results: iPSC cells were tested with different concentrations of BMP4 to induce non-neural ectodermal differentiation (FIG. 6a, b). […] Expression of human TFAP2A and TFAP2C (AP2 Gamma) as predominant non-neural ectodermal markers were increased at day 10 of differentiation using Nanostring analysis compared to the control sample (FIG. 6g-h). Moreover, expression levels of human specific neural ectoderm markers, such as paired box gene 6 (PAX6), orthodenticle homeobox 2 (OTX2) and SRY-box transcription factor 11 (SOX11) were decreased during differentiation (FIG. 6i-k).

The test system of the next assay is iPSC cells. Put plainly: RNA expression of ESRRA, KRT14 and MUC1 at end-stage of 3D-mammary gland differentiation. The class given is cell-based, human. Conditions: day 30, 33 and 35, compared to the control sample. The method, then:
The effect of BMP4 at the end-stage of 3D-mammary gland differentiation of iPSC cells was assessed using estrogen related receptor alpha (ESRRA), Keratin 14 (KRT14) and MUC1 for their expression profiles.

Assay [3] deals with iPSCs derived mammary gland organoids. The assay is described as follows: Flow cytometry of progenitor markers, BMP4 and RA single or combined, 42 days and 31 days protocols. To be noted: 20 ng/ml BMP4, 1 μM RA, single or combination, compared to the control condition. The class given is cell-based, human. From the text: In order to generate milk bioactives that closely resemble those found in human breast milk, different methods using bone morphogenetic protein 4 (BMP4) and retinoic acid (RA) in 42 days and 31 days as a shortened time-course protocol were established in a 3D-platform using iPSCs derived mammary gland organoids as a biomimetic model of the human mammary gland (FIG. 9).

Assay [4] concerns iPS-derived mammary-gland cells. The assay is described as follows: LC-MS/MS targeted proteomic analysis of osteopontin protein secretion. The class given is cell-based, human. Conditions: also detected with control differentiation method. The source says:
Human osteopontin peptides—GDSVVYGLR and -YPDAVATWLNPDPSQK were specifically detected in the cell culture supernatant by LC-MS/MS (FIG. 10).
Osteopontin protein secretion was detected in the media of cultures of iPS-derived mammary-gland cells using control differentiation method, or with bone morphogenetic protein 4 (BMP4), retinoic acid (RA) and in the combination of the two factors.

B1: BMP4: bone morphogenetic protein 4 (314-BP-050, Bio-Techne AG), added to the culture media (protein, UniProt P12644 293-408, looked up)
Bone morphogenetic protein 4: SPKHHSQRARKKNKNCRRHSLYVDFSDVGWNDWIVAPPGYQAFYCHGDCPFPLADHLNSTNHAIVQTLVNSVNSSIPKACCVPTELSAISMLYLDEYDKVVLKNYQEMVVEGCGCR
With B1, in assay [1], the “expression of mammary gland progenitor markers EpCAM (CD326), CD49f, MUC1 (CD227) and GATA3” value is “significantly induced”. Also, in assay [2] (RNA expression level), the “expression of luminal marker KRT18 and osteopontin (OPN)” value is given as “can induce the expression”. The “expression of human TFAP2A and TFAP2C (non-neural ectodermal markers)” value in assay [2] (day 10 of differentiation, compared to the control sample) is “increased”. For the same molecule, the “expression levels of neural ectoderm markers PAX6, OTX2 and SOX11” value in assay [2] (during differentiation) was “decreased”. Further, the “RNA expression levels of ESRRA, KRT14 and MUC1” value in the assay on iPSC cells is reported as “increased”. Also, the “expression of mammary gland progenitor markers EpCAM, CD49f, MUC1 and GATA3 (induced or maintained)” value in assay [3] is given as “can induce the expression”. For the same molecule, in assay [4], the “osteopontin protein secretion in culture media” value is “detected”.
